Tests used:
Assay in all cases: SPR; SIRPα variants immobilized via a biotin tag on a streptavidin-coated CM5 chip, BIAcore 3000, 37 °C; dilutions of soluble monomeric CD47 (0.05 to 25.7 μM) injected; KD from equilibrium binding; purification of the variants from 293T not told
[1] = molecular target: SIRPα variant v2, three Ig superfamily domains linked to rat CD4d3 and -4 and a biotinylation sequence (human)
[2] = molecular target: SIRPα variant v10, three Ig superfamily domains linked to rat CD4d3 and -4 and a biotinylation sequence (human)
[3] = molecular target: SIRPα variant v5, three Ig superfamily domains linked to rat CD4d3 and -4 and a biotinylation sequence (human)
SIRPα variant v5, three Ig superfamily domains linked to rat CD4d3 and -4 and a biotinylation sequence (human), sequence (P78324 31-504, stated change not applied): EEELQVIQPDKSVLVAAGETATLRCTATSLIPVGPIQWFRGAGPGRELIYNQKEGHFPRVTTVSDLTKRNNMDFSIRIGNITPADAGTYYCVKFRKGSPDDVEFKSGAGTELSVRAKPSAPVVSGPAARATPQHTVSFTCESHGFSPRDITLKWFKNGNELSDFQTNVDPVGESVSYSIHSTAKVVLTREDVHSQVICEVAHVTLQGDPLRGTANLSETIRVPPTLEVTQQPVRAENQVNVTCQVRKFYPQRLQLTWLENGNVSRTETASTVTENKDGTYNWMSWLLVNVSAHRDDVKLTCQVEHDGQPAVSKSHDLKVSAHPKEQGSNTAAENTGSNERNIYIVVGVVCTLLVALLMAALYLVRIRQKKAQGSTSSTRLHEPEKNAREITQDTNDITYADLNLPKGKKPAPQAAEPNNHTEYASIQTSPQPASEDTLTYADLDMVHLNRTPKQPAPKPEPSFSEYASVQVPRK

[4] = molecular target: SIRPα variant v7, three Ig superfamily domains linked to rat CD4d3 and -4 and a biotinylation sequence (human)
SIRPα variant v7, three Ig superfamily domains linked to rat CD4d3 and -4 and a biotinylation sequence (human), sequence (P78324 31-504, stated change not applied): as above

[5] = molecular target: SIRPα variant v1, three Ig superfamily domains linked to rat CD4d3 and -4 and a biotinylation sequence (human)

Kd [1]: 0.64 µM
Kd [2]: 0.67 µM
Kd [3]: 0.78 µM
Kd [4]: 0.65 µM
Kd [5]: 0.74 µM
Substance: Recombinant CD47 Ig superfamily domain (from UniProt Q08722 19-136) (domain or fragment)

Source: article PMC3974974
